B1: His-tagged wild type PsmA (natural protein, Saccharolobus islandicus REY15A, UniProt C3MQ43 1-241, looked up)
chain: MAFGPAAMGYDRAITIFSPDGSLYQVDYAFEAVKKGWTAIGIKSKSGVVIASEKRKAQSLLDVDSIEKVFLIDDHVGCSFAGLASDGRVLIDYARNIALQHRLIYDEPVSIDYLTKSVADVKQMYTQHGGVRPFGVALVIAGIDKSVPKLYMTEPSGQYMPYQAVAIGQGYYTATEFLEKNYKEDLTIEDTILLALKALSATLKPNEKLTPNTVEIGYASTQTGLFLKMTSEDKNMYLQKL
B2: His-tagged PsmA S200D (natural protein, Saccharolobus islandicus REY15A, UniProt C3MQ43 1-241, looked up)
chain: MAFGPAAMGYDRAITIFSPDGSLYQVDYAFEAVKKGWTAIGIKSKSGVVIASEKRKAQSLLDVDSIEKVFLIDDHVGCSFAGLASDGRVLIDYARNIALQHRLIYDEPVSIDYLTKSVADVKQMYTQHGGVRPFGVALVIAGIDKSVPKLYMTEPSGQYMPYQAVAIGQGYYTATEFLEKNYKEDLTIEDTILLALKALDATLKPNEKLTPNTVEIGYASTQTGLFLKMTSEDKNMYLQKL
B3: His-tagged PsmA T213E (natural protein, Saccharolobus islandicus REY15A, UniProt C3MQ43 1-241, looked up)
chain: MAFGPAAMGYDRAITIFSPDGSLYQVDYAFEAVKKGWTAIGIKSKSGVVIASEKRKAQSLLDVDSIEKVFLIDDHVGCSFAGLASDGRVLIDYARNIALQHRLIYDEPVSIDYLTKSVADVKQMYTQHGGVRPFGVALVIAGIDKSVPKLYMTEPSGQYMPYQAVAIGQGYYTATEFLEKNYKEDLTIEDTILLALKALSATLKPNEKLTPNEVEIGYASTQTGLFLKMTSEDKNMYLQKL

Biological target: the molecule itself
Assay: focused ion beam electron microscopy

Stoichiometry N, 14:
B1
B2
B3
